Laboratory results reported in patent publication US20220372147A1 (UNIVERSIT T STUTTGART, published 2022).

What was measured:
[1] = biological target: T1, mouse CD3 on murine spleenocytes (mouse, UniProt P22646 22-189); experiment: flow cytometry on murine spleenocytes (mouse CD3), PE anti-human Fc
T1 construct: whole, on cells; also called murine CD3-expressing murine spleenocytes; moCD3

[2] = biological target: T2, FAP on FAP-expressing HT1080-FAP cells (UniProt Q12884 1-760, limits assumed); experiment: flow cytometry on FAP-expressing HT1080-FAP cells, PE anti-human Fc
T2 construct: whole, on cells

[3] = biological target: T3, HER3 on HER3-expressing cancer cells (LIM1215, BT474) (UniProt P21860 20-1342, limits assumed); experiment: cell-based or functional assay
[4] = biological target: T3, HER3 on HER3-expressing cancer cells …; experiment: flow cytometry on HER3-expressing LIM1215 cells, PE anti-human Fc
[5] = biological target: T3, HER3 on HER3-expressing cancer cells …; experiment: flow cytometry on HER3-expressing BT474 cells, PE anti-human Fc
[6] = biological target: T4, CD3 on CD3-expressing Jurkat cells (human, UniProt P07766 23-207); experiment: flow cytometry on CD3-expressing Jurkat cells, PE anti-human Fc
T4 construct: whole, on cells

[7] = biological target: T3, HER3 on HER3-expressing cancer cells …; experiment: cell-based or functional assay; remark: listed apart in the source
[8] = biological target: T5, His-tagged HER3 protein, extracellular domain (ECD) of HER3 (aa 21-643) (UniProt P21860 21-643); experiment: ELISA, immobilized HER3-His, anti-human Fc-HRP detection
T5 construct: range 21-643; also called HER3-His; not shown: His-tag

[9] = biological target: T6, Flag-tagged FAP protein, extracellular domain of FAP (aa 32-728) (UniProt Q12884 32-728); experiment: ELISA, immobilized FAP-Flag, anti-human Fc-HRP detection
T6 construct: range 32-728; also called FAP-Flag; not shown: Flag-tag

T1 sequence (P22646 22-189): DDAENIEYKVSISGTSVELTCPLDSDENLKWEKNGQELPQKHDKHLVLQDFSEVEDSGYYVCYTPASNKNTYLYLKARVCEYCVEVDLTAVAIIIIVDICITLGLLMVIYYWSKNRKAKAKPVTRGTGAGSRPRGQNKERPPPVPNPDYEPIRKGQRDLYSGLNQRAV
T4 sequence (P07766 23-207): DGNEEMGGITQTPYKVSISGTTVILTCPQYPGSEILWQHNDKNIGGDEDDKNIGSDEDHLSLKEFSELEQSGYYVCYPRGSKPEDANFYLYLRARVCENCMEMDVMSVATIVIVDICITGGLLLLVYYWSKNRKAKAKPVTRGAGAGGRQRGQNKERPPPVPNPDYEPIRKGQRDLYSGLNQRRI

B1: bivalent and bispecific eIg molecule targeting FAP and mouse CD3, molecule I (bispecific antibody)
light 1: DIQMTQSPSSLSASVGDRVTITCRASKSVSTSAYSYMHWYQQKPGKAPKLLIYLASNLESGVPSRFSGSGSGTDFTLTISSLQPEDFATYYCQHSRELPYTFGQGTKLEIKRRTVAAPSVFIFPPSDEQLKSGTASVVCLLNNFYPREAKVQWKVDNALQSGNSQESVTEQDSKDSTYSLSSTLTLSKADYEKHKVYACEVTHQGLSSPVTKSFNRGEC
heavy 1: QVQLVQSGAEVKKPGASVKVSCKASGYTFTENIIHWVRQAPGQGLEWMGWFHPGSGSIKYNEKFKDRVTMTADTSTSTVYMELSSLRSEDTAVYYCARHGGTGRGAMDYWGQGTLVTVSSASTKGPSVFPLAPSSKSTSGGTAALGCLVKDYFPEPVTVSWNSGALTSGVHTFPAVLQSSGLYSLSSVVTVPSSSLGTQTYICNVNHKPSNTKVDKKVEPKSCGTDKTHTCPPCPAPPVAGPSVFLFPPKPKDTLMISRTPEVTCVVVDVSHEDPEVKFNWYVDGVEVHNAKTKPREEQYNSTYRVVSVLTVLHQDWLNGKEYKCKVSNKGLPSSIEKTISKAKGQPREPQVCTLPPSRDELTKNQVSLSCAVKGFYPSDIAVEWESNGQPENNYKTTPPVLDSDGSFFLVSKLTVDKSRWQQGNVFSCSVMHEALHNHYTQKSLSLSPGK
light 2: EVQLVESGGGLVQPGKSLKLSCEASGFTFSGYGMHWVRQAPGRGLESVAYITSSSINIKYADAVKGRFTVSRDNAKNLLFLQMNILKSEDTAMYYCARFDWDKNYWGQGTMVTVSSDFTPPTVKILQSSSDGGGHFPPTIQLLCLVSGYTPGTIQITWLEDGQVMDVDLSTASTTQEGELASTQSELTLSQKHWLSDRTYTCQVTYQGHTFEDSTKKCADSN
heavy 2: DIQMTQSPSSLPASLGDRVTINCQASQDISNYLNWYQQKPGKAPKLLIYYTNKLADGVPSRFSGSGSGRDSSFTISSLESEDIGSYYCQQYYNYPWTFGPGTKLEIKDFTPPTVKILQSSCDGGGHFPPTIQLLCLVSGYTPGTINITWLEDGQVMDVDLSTASTTQEGELASTQSELTLSQKHWLSDRTYTCQVTYQGHTFEDSTKKSADSNGTDKTHTCPPCPAPPVAGPSVFLFPPKPKDTLMISRTPEVTCVVVDVSHEDPEVKFNWYVDGVEVHNAKTKPREEQYNSTYRVVSVLTVLHQDWLNGKEYKCKVSNKGLPSSIEKTISKAKGQPREPQVYTLPPCRDELTKNQVSLWCLVKGFYPSDIAVEWESNGQPENNYKTTPPVLDSDGSFFLYSKLTVDKSRWQQGNVFSCSVMHEALHNHYTQKSLSLSPGK
notes: In molecule I the 2C11 VH sits on the 'light chain' and the VL on the Fc-bearing chain; also called eIg FAP × moCD3 I
- EC50 [1]: 7.3 nM
- EC50 [2]: 2.9 nM

B2: bivalent and bispecific eIg molecule targeting FAP and mouse CD3, molecule II (bispecific antibody)
light 1: DIQMTQSPSSLSASVGDRVTITCRASKSVSTSAYSYMHWYQQKPGKAPKLLIYLASNLESGVPSRFSGSGSGTDFTLTISSLQPEDFATYYCQHSRELPYTFGQGTKLEIKRRTVAAPSVFIFPPSDEQLKSGTASVVCLLNNFYPREAKVQWKVDNALQSGNSQESVTEQDSKDSTYSLSSTLTLSKADYEKHKVYACEVTHQGLSSPVTKSFNRGEC
heavy 1: QVQLVQSGAEVKKPGASVKVSCKASGYTFTENIIHWVRQAPGQGLEWMGWFHPGSGSIKYNEKFKDRVTMTADTSTSTVYMELSSLRSEDTAVYYCARHGGTGRGAMDYWGQGTLVTVSSASTKGPSVFPLAPSSKSTSGGTAALGCLVKDYFPEPVTVSWNSGALTSGVHTFPAVLQSSGLYSLSSVVTVPSSSLGTQTYICNVNHKPSNTKVDKKVEPKSCGTDKTHTCPPCPAPPVAGPSVFLFPPKPKDTLMISRTPEVTCVVVDVSHEDPEVKFNWYVDGVEVHNAKTKPREEQYNSTYRVVSVLTVLHQDWLNGKEYKCKVSNKGLPSSIEKTISKAKGQPREPQVCTLPPSRDELTKNQVSLSCAVKGFYPSDIAVEWESNGQPENNYKTTPPVLDSDGSFFLVSKLTVDKSRWQQGNVFSCSVMHEALHNHYTQKSLSLSPGK
light 2: DIQMTQSPSSLPASLGDRVTINCQASQDISNYLNWYQQKPGKAPKLLIYYTNKLADGVPSRFSGSGSGRDSSFTISSLESEDIGSYYCQQYYNYPWTFGPGTKLEIKDFTPPTVKILQSSSDGGGHFPPTIQLLCLVSGYTPGTIQITWLEDGQVMDVDLSTASTTQEGELASTQSELTLSQKHWLSDRTYTCQVTYQGHTFEDSTKKCADSN
heavy 2: EVQLVESGGGLVQPGKSLKLSCEASGFTFSGYGMHWVRQAPGRGLESVAYITSSSINIKYADAVKGRFTVSRDNAKNLLFLQMNILKSEDTAMYYCARFDWDKNYWGQGTMVTVSSDFTPPTVKILQSSCDGGGHFPPTIQLLCLVSGYTPGTINITWLEDGQVMDVDLSTASTTQEGELASTQSELTLSQKHWLSDRTYTCQVTYQGHTFEDSTKKSADSNGTDKTHTCPPCPAPPVAGPSVFLFPPKPKDTLMISRTPEVTCVVVDVSHEDPEVKFNWYVDGVEVHNAKTKPREEQYNSTYRVVSVLTVLHQDWLNGKEYKCKVSNKGLPSSIEKTISKAKGQPREPQVYTLPPCRDELTKNQVSLWCLVKGFYPSDIAVEWESNGQPENNYKTTPPVLDSDGSFFLYSKLTVDKSRWQQGNVFSCSVMHEALHNHYTQKSLSLSPGK
notes: also called eIg FAP × moCD3 II; second molecule
- EC50 [1]: 24.2 nM
- EC50 [2]: 2.7 nM

B3: bispecific, trivalent eIg-Fab3 targeting HER3 and CD3 (bispecific antibody)
light 1: QAGLTQPPAVSVAPGQTASITCGRDNIGSRSVHWYQQKPGQAPVLVVYDDSDRPAGIPERFSGSNYENTATLTISRVEAGDEADYYCQVWGITSDHVVFGGGTKLTVLGQPKAAPSVTLFPPSSEELQANKATLVCLISDFYPGAVTVAWKADSSPVKAGVETTTPSKQSNNKYAASSYLSLTPEQWKSHRSYSCQVTHEGSTVEKTVAPTECS
light 2: not shown
heavy 1: QVQLVQSGAEVKKPGSSVKVSCKASGGTFSGYTMNWVRQAPGQGLEWMGLINPYKGVSTYNGKFKDRVTITADKSTSTAYMELSSLRSEDTAVYYCARSGYYGDSDWYFDVWGQGTLVTVSSDFTPPTVKILQSSCDGGGHFPPTIQLLCLVSGYTPGTINITWLEDGQVMDVDLSTASTTQEGELASTQSELTLSQKHWLSDRTYTCQVTYQGHTFEDSTKKSADSNGGSGGGGSGGQVQLQQSGPGLVKPSQTLSLTCAISGDSVSSNRAAWNWIRQSPSRGLEWLGRTYYRSKWYNDYAQSLKSRITINPDTPKNQFSLQLNSVTPEDTAVYYCARDGQLGLDALDIWGQGTMVTVSSASTKGPSVFPLAPSSKSTSGGTAALGCLVKDYFPEPVTVSWNSGALTSGVHTFPAVLQSSGLYSLSSVVTVPSSSLGTQTYICNVNHKPSNTKVDKKVEPKSCGTDKTHTCPPCPAPPVAGPSVFLFPPKPKDTLMISRTPEVTCVVVDVSHEDPEVKFNWYVDGVEVHNAKTKPREEQYNSTYRVVSVLTVLHQDWLNGKEYKCKVSNKGLPSSIEKTISKAKGQPREPQVYTLPPCRDELTKNQVSLWCLVKGFYPSDIAVEWESNGQPENNYKTTPPVLDSDGSFFLYSKLTVDKSRWQQGNVFSCSVMHEALHNHYTQKSLSLSPGK
heavy 2: QVQLQQSGPGLVKPSQTLSLTCAISGDSVSSNRAAWNWIRQSPSRGLEWLGRTYYRSKWYNDYAQSLKSRITINPDTPKNQFSLQLNSVTPEDTAVYYCARDGQLGLDALDIWGQGTMVTVSSASTKGPSVFPLAPSSKSTSGGTAALGCLVKDYFPEPVTVSWNSGALTSGVHTFPAVLQSSGLYSLSSVVTVPSSSLGTQTYICNVNHKPSNTKVDKKVEPKSCGTDKTHTCPPCPAPPVAGPSVFLFPPKPKDTLMISRTPEVTCVVVDVSHEDPEVKFNWYVDGVEVHNAKTKPREEQYNSTYRVVSVLTVLHQDWLNGKEYKCKVSNKGLPSSIEKTISKAKGQPREPQVCTLPPSRDELTKNQVSLSCAVKGFYPSDIAVEWESNGQPENNYKTTPPVLDSDGSFFLVSKLTVDKSRWQQGNVFSCSVMHEALHNHYTQKSLSLSPGK
- potency in cell killing relative to eIg-Fab4 [3]: ~4 fold
- EC50 [4]: 0.4 nM
- EC50 [5]: 0.2 nM
- EC50 [6]: 1.1 nM
- EC50 value in cell killing (PBMC-mediated cytotoxicity on BT-474 cells, crystal violet) [7]: 0.5 nM
- EC50 value in cell killing (PBMC-mediated cytotoxicity on LIM1215 cells, crystal violet) [7]: 0.4 nM

B4: bivalent and bispecific eIg molecule targeting HER3 and FAP (bispecific antibody)
light 1: QAGLTQPPAVSVAPGQTASITCGRDNIGSRSVHWYQQKPGQAPVLVVYDDSDRPAGIPERFSGSNYENTATLTISRVEAGDEADYYCQVWGITSDHVVFGGGTKLTVLGQPKAAPSVTLFPPSSEELQANKATLVCLISDFYPGAVTVAWKADSSPVKAGVETTTPSKQSNNKYAASSYLSLTPEQWKSHRSYSCQVTHEGSTVEKTVAPTECS
heavy 1: not shown
light 2: DIQMTQSPSSLSASVGDRVTITCRASKSVSTSAYSYMHWYQQKPGKAPKLLIYLASNLESGVPSRFSGSGSGTDFTLTISSLQPEDFATYYCQHSRELPYTFGQGTKLEIKRDFTPPTVKILQSSSDGGGHFPPTIQLLCLVSGYTPGTIQITWLEDGQVMDVDLSTASTTQEGELASTQSELTLSQKHWLSDRTYTCQVTYQGHTFEDSTKKCADSN
heavy 2: not shown
notes: Four different polypeptide chains; one site for HER3, one for FAP; also called eIg antibody targeting HER3 and FAP
- EC50 [8]: 3.4 nM
- EC50 [9]: 7.6 nM
